The text below walks through data of patent US20090286739A1 (FIBREX MEDICAL RESEARCH AND DEVELOPMENT, published 2009).

Non-standard residues stand in square brackets, D forms with d. Primed or numbered codes have the meaning given here. No end group written: not given here. Haic′ = not defined here; Acdn = not defined here

This test concerns the target T1, vascular endothelial (VE) cadherin (human, UniProt P33151 48-784).
T1 sequence (looked up): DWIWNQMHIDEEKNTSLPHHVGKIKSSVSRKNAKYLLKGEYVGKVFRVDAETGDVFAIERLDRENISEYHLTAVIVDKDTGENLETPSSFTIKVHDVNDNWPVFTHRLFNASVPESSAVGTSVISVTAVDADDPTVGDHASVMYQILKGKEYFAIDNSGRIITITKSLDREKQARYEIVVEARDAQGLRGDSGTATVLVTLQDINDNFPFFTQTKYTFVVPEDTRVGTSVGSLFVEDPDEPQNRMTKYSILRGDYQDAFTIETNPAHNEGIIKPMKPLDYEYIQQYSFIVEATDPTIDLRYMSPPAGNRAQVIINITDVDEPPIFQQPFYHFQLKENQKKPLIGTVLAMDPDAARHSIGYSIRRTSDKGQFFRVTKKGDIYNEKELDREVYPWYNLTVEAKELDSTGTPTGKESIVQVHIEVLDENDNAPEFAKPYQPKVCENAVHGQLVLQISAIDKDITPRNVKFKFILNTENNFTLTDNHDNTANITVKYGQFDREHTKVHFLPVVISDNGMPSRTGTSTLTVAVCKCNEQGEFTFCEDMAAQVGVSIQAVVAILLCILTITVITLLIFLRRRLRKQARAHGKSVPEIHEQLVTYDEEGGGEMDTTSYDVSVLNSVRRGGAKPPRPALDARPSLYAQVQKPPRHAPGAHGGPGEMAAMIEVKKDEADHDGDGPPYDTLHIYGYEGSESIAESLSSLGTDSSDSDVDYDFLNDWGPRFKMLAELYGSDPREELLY
The test is described as follows: cell-based or functional assay.

Turning to GHRPLDK[cis‑4‑Acha]ISGGGYR [Gly-His-Arg-Pro-Leu-Asp-Lys-(cis-4-Acha)-Ile-Ser-Gly-Gly-Gly-Tyr-Arg], the “Relative RhoA stimulation compared to unstimulated control” value (from here on “Relative RhoA stimulation”) is 1 fold of unstimulated control.

B1: Gly-His-Arg-Pro-Leu-Asp-Lys-(1S,2R)Achc-Ile-Ser-Gly-Gly-Gly-Tyr-Arg (peptide)
peptide: GHRPLDK[(1S,2R)Achc]ISGGGYR
modifications: not fully specified; printed as Gly-His-Arg-Pro-Leu-Asp-Lys-(1S,2R)Achc-Ile-Ser-Gly-Gly-Gly-Tyr-Arg
As for B1, the “Relative RhoA stimulation” value was 1.5 fold of unstimulated control.

B2: Gly-His-Arg-Pro-Leu-Asp-Lys-Acdn-Ile-Ser-Gly-Gly-Gly-Tyr-Arg (peptide)
peptide: GHRPLDK[Acdn]ISGGGYR-NH2
modifications: reading uncertain; also: printed as Gly-His-Arg-Pro-Leu-Asp-Lys-Acdn-Ile-Ser-Gly-Gly-Gly-Tyr-Arg-NH2
For the molecule B2, the “Relative RhoA stimulation” value is 1.3 fold of unstimulated control.

GHRPLDK[Haic′]ISGGGYR [Gly-His-Arg-Pro-Leu-Asp-Lys-Haic-Ile-Ser-Gly-Gly-Gly-Tyr-Arg]: the “Relative RhoA stimulation” value was 1.3 fold of unstimulated control.
